This is an account of results in article PMC6965642, “The novel missense mutation Met48Lys in FKBP22 changes its structure and functions” (Scientific Reports, 2020).

The target in assay [1] is type X collagen (Homo sapiens) (UniProt Q03692). Conditions: cited from earlier work.
The target in assay [2] is mouse type IV collagen (mouse). In words: SPR; BIAcore X; collagens immobilised on CM5 chips by amide coupling, FKBP22 injected; 20 °C; HBS-P (10 mM Hepes pH 7.4, 150 mM NaCl, 0.005% Surfactant P20) with 1 mM CaCl2; flow 10 µL/min; steady-state affinity model for type IV collagen - WT FKBP22, Langmuir-binding model for type X collagen - M48K FKBP22. (In general: Surface plasmon resonance follows binding to a sensor surface in real time, without labels.)

The target in assay [3] is T1, human recombinant type X collagen (human, UniProt Q03692 19-680).
T1 construct: type X collagen, human, recombinant; source: 293 cells, purified as described previously
T1 sequence (Q03692 19-680): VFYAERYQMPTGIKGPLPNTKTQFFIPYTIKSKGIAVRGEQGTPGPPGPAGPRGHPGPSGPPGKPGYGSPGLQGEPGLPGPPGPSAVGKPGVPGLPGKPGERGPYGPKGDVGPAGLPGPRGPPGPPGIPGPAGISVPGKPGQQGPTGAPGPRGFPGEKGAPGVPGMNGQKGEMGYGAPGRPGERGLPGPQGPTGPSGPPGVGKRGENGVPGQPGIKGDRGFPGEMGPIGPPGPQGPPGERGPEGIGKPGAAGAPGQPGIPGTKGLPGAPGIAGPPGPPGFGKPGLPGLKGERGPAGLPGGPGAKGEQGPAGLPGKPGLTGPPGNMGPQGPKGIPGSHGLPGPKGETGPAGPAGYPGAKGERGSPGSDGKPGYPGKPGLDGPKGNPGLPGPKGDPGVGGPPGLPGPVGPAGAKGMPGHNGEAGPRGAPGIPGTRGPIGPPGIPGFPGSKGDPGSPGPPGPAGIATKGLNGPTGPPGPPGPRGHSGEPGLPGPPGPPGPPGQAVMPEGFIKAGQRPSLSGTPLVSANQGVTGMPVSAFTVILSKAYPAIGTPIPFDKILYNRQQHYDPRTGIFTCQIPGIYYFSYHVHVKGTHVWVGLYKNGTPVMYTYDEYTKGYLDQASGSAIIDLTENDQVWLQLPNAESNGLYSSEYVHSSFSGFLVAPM
The assay is described as above. The conditions noted are these: both partners purified.

Chain of type X collagen (Homo sapiens) (Q03692 19-680): as above

By Kd is commonly meant the free concentration of one partner at which half of the binding sites on the other are occupied at equilibrium, for simple one-to-one binding. In the case of FKBP22 (from UniProt Q9NWM8), the Kd in assay [1] was 43 µM.

B1: recombinant human wild type FKBP22 (FK506 Binding Protein 22 kDa) (enzyme)
chain: LIPEPEVKIEVLQKPFICHRKTKGGDLMLVHYEGYLEKDGSLFHSTHKHNNGQPIWFTLGILEALKGWDQGLKGMCVGEKRKLIIPPALGYGKEGKGKIPPESTLIFNIDLLEIRNGPRSHESFQEMDLNDDWKLSKDEVKAYLKKEFEKHGAVVNESHHDALVEDIFDKEDEDKDGFISAREFTYKHDEL
Turning to B1, the Kd in assay [2] was 310 µM.

B2: recombinant human M48K FKBP22 (Met48Lys) (enzyme)
chain: LIPEPEVKIEVLQKPFICHRKTKGGDLKLVHYEGYLEKDGSLFHSTHKHNNGQPIWFTLGILEALKGWDQGLKGMCVGEKRKLIIPPALGYGKEGKGKIPPESTLIFNIDLLEIRNGPRSHESFQEMDLNDDWKLSKDEVKAYLKKEFEKHGAVVNESHHDALVEDIFDKEDEDKDGFISAREFTYKHDEL
notes: The mutation was found in a patient with kEDS; PDB 4MSP is the WT structure (parent); also called mutant FKBP22; source: E. coli BL21 (DE3), solubilised with 2 M urea, purified (Co2+-chelating column, enterokinase cleavage, Phenyl column)
As to B2, in assay [3], the Kd worked out at 5.3 ± 4 µM.
